Test results as given in patent publication US8216580B2, “Sulfatases and methods of use thereof” (The Regents of the University of California, priority 2000, dated 2012).

B1: Human glucosamine-6-sulfatase: human lysosomal glucosamine-6-sulfatase, purchased from Glyko Inc. (protein, UniProt P15586 37-552, looked up)
N-acetylglucosamine-6-sulfatas …: VFGVAAGTRRPNVVLLLTDDQDEVLGGMTPLKKTKALIGEMGMTFSSAYVPSALCCPSRASILTGKYPHNHHVVNNTLEGNCSSKSWQKIQEPNTFPAILRSMCGYQTFFAGKYLNEYGAPDAGGLEHVPLGWSYWYALEKNSKYYNYTLSINGKARKHGENYSVDYLTDVLANVSLDFLDYKSNFEPFFMMIATPAPHSPWTAAPQYQKAFQNVFAPRNKNFNIHGTNKHWLIRQAKTPMTNSSIQFLDNAFRKRWQTLLSVDDLVEKLVKRLEFTGELNNTYIFYTSDNGYHTGQFSLPIDKRQLYEFDIKVPLLVRGPGIKPNQTSKMLVANIDLGPTILDIAGYDLNKTQMDGMSLLPILRGASNLTWRSDVLVEYQGEGRNVTDPTCPSLSPGVSQCFPDCVCEDAYNNTYACVRTMSALWNLQYCEFDDQEVFVEVYNLTADPDQITNIAKTIDPELLGKMNYRLMMLQSCSGPTCRTPGVFDPGYRFDPRLMFSNRGSVRTRRFSKHLL

Tests used:
[1] = comparison enzymes; cited from earlier work
[2] = Arylsulfatase activity assay with 4-MUS substrate; type: biochemical; conditions: 1 milliunit, 24 hr incubation
Experimental: The 100-fold concentrated conditioned medium (CM) derived from each transfection of CHO cells as described above was dialyzed into 50 mM HEPES, pH 8.0. The His-tagged fusion proteins were bound to a Ni-NTA resin (QIAGEN) by rotation at 4° C. over night, then washed with 50 mM HEPES (pH 8.0), 3 times. 250 mM imidazole in 50 mM HEPES, pH 8.0 was used to elute the His-tagged fusion proteins from Ni-NTA. The resins with boud material or the eluates were mixed with 10 mM 4-methylumbelliferyl-sulfate (4-MUS; a substrate for sulfatases), and 10 mM lead acetate, in a total volume of 100 μl. The reaction mixtures were incubated at 37° C. for various periods of time. Reactions were terminated by the addition of 100 μl of 0.5 M Na2CO3/NaHCO3, pH 10.7 to 20 μl of the reaction mixture. The fluorescence of 4-methylumbelliferone was measured on a Multi-Well Plate Reader CytoFluorII (PerSeptive Biosystems). The fluorescence was determined at an excitation wavelength of 360 nm and emission wavelength of 460 nm. A substrate dose response curve was performed over the concentration range of 1 to 10 mM 4-MUS.
The synthetic fluorogenic compound 4-methylumbelliferyl sulfate (4-MUS) serves as a substrate for most sulfatases, both in the lysosomal and non-lysosomal classes. CHO cells were transfected with a cDNA for HSulf-1 or HSulf-2 or a vector control. Conditioned medium was collected and incubated with nickel resin (Ni-NTA) to bind the His-tagged recombinant proteins. The bead-bound material was assayed for activity on 4-MUS. For both enzymes, hydrolysis depended on time of reaction (FIG. 15A), concentration of substrate (FIG. 15B), and amount of CM (FIG. 15C). From the substrate dose-response curves of FIG. 15B and based on estimates of Sulf protein levels in CM, we approximated Vmax for the two Sulfs to be in the range of 1000-2000 nmol per min per mg of Sulf protein. Human glucosamine-6-sulfatase has a considerably lower Vmax against 4-MUS ([…]) whereas the Vmax of human N-acetylgalactosamine-4-sulfatase (arylsulfatase B) is much higher (48000).
HSulf-1, HSulf-2 or their mutated forms (HSulf-1 ΔCC and HSulf-2 ΔCC) was purified from the conditioned medium of transfected CHO cells by binding to Ni-NTA beads. A) The bead-bound material was tested for arylsulfatase activity as a function of time against 10 mM 4-MUS substrate at pH 8. The “no-enzyme” control was based on testing conditioned medium from vector-control transfected CHO cells. No activity was detected in the absence of added substrate (not shown). […] The activity of each Sulf was determined relative to that of beads exposed to an equivalent volume of vector-control conditioned medium. The activity of HG6S was determined (24 hr incubation) relative to that of the buffer. […]

| Molecule | Vmax against 4-MUS [1] [nmol/min/mg] | arylsulfatase activity at pH 5 ([2]; pH 5) | arylsulfatase activity at pH 8 ([2]; pH 8) |
| --- | --- | --- | --- |
| human N-acetylgalactosamine-4-sulfatase: human N-acetylgalactosamine-4-sulfatase (arylsulfatase B), comparison enzyme [reference compound] | 48000 |  |  |
| B1 | 100 | measurable activity | none |
